Test results taken from the supplement of paper PMC9170038.

Tested on: MS2 coat protein
Assay: apparent KD of MS2 coat protein; designed switch direction (-1 OFF switch, 1 ON switch): -1; higher = weaker reporter binding
Method in brief: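 The buffer was Tris-HCl pH 7.5 with KCl, MgCl2, BSA, DTT, tRNA and Tween-20. In it, SNAP-549-labelled MS2 coat protein was titrated in doubling steps from 0.7 or 1.5 nM to 3 µM over chip-bound RNA switches transcribed by stalled E. coli RNA polymerase on Illumina chips. Apparent KD is the per-design median over clusters of curve fits to normalised fluorescence.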

[1] = Eterna round: R95, input ligand: FMN 200 uM
[2] = Eterna round: R95, input ligand: microRNA oligo, concentration not stated
[3] = Eterna round: R95, input ligand: none
[4] = input ligand: microRNA oligo, concentration not stated

Sequence	apparent KD of MS2 coat protein (input ligand: FMN 200 uM)	apparent KD of MS2 coat protein (input ligand: none)	apparent KD of MS2 coat protein [1]	apparent KD of MS2 coat protein [2]	apparent KD of MS2 coat protein [3]	apparent KD of MS2 coat protein [4]
CAGUACAGAGGAUAUACAUGAGGAUCACCCAUGUGUUUCAGCUAGGAAACUAGCGAAUGUAGAAGGCUGUACUG [jl-ex3-4.24 salish99 mod] (Eterna round: R97, puzzle: Exclusion 3)	178 nM	38.3 nM	–	–	–	–
GUCCUCAUGACGCCUAAACACAUGAGGAUCACCCAUGUACAGGCUUUUUGUCGUCUUAUAAUAAAACCGAGGAUGCG [Xelaanen] (puzzle: Sensor v3, turn-off variant 1)	–	–	24.4 nM	319 nM	29.8 nM	–
CUAUUCCGAGGAUAUACAUGAGGAUCACCCAUGUCGGGCCUCUGCGUUUAGCGCGAAAGUAGAAGGUGGGUUUC [JL Riri mod 9] (puzzle: Exclusion 3)	–	–	–	28.3 nM	–	–
CAAUUCCGAGGAUAUACAUGAGGAUCACCCAUGUCGGGCCUCAGCGUUUAGCGCCUAAGUAGAAGGUGGGUUUC [JL Riri mod 4] (Eterna round: R96, puzzle: Exclusion 3)	47.1 nM	46.6 nM	–	–	–	31.7 nM
UGAUCUAGCGGAGGAUAUACAUGAGGAUCACCCAUGUAGUAGUGAGUUGCGUACAGCUCACUUGUGUAGAAGGCCGCUAGAUCU [JL ENG2 3.59] (Eterna round: R96, puzzle: Exclusion NG 2)	16.5 nM	12.7 nM	–	–	–	10.1 nM
ACAUGUCAUCGAGGAUAUUGGACACAUGAGGAUCACCCAUGUACUCGGAGGCUCUACCAUGAGUUCGAGAAGGCGAUGUACAUG [Ex NG2 #76] (Eterna round: R96, puzzle: Exclusion NG 2)	651 nM	365 nM	–	–	–	316 nM
GUCAACGCAGGAUAUUAGAACUUUUACAUGAGGAUCACCCAUGUUAAUUGGGUCUAAGAAUAAGAAGGGCGAUGAA [JR_Ex5_Sub011] (Eterna round: R97, puzzle: Exclusion 5)	15.8 nM	14 nM	–	–	–	–
UGUACUAUGCGUGCUGACAUGCGUAGUGCAGCAGGUGUUACAUGAGGAUCACCCAUGUCCUCAUUUGCUCGUCUUAU [SL-sv3-2.07 JL mod] (puzzle: Sensor v3, turn-off variant 2)	–	–	189 nM	200 nM	215 nM	–
AGCAGACGAGGAUAUAAAUGAUAUAACAUGAGGAUCACCCAUGUACGAUCGAAUGAUCGUUUAGAAGGCGUCUGCU [E5/11-A1] (Eterna round: R97, puzzle: Exclusion 5)	16.5 nM	16.3 nM	–	–	–	–
CUAAAUCAUGUAGGAUAUGCGUGGCAAAGCUAUGCAGAAGGACAUGAGGAUCACCCAUGUGCUUCCGUCUGAGAACAGACGGUA [Mat - Exclusion NG 1 - Mod of JL - D23] (Eterna round: R96, puzzle: Exclusion NG 1)	306 nM	68.2 nM	–	–	–	49.6 nM
GACUUGUCAGGAUAUCUUACAUUUGCAUCGUAGUUACCGUUGGAGAAGGGACAUGAGGAUCACCCAUGUUUGGC [tap-tap-tappy24] (Eterna round: R97, puzzle: Exclusion 4)	26.6 nM	28.9 nM	–	–	–	–
CACCUGAAGUCAGGAUAUCAUACAUGAGGAUCACCCAUGUAAUAAAUGAGAAUUUCGAAUGUAAUUGAGAAGGGACAAUAAGGC [Ostricism 97 - Jieux - Exclusion NG 2] (Eterna round: R96, puzzle: Exclusion NG 2)	93.2 nM	44.2 nM	–	–	–	34 nM
AAGAAUUAGUCAGGAUAUAGCGGCCAAGAACUACUAGAAGGGAUUAGACAUGAGGAUCACCCAUGUGAUCUUUUUGUAGGGACG [Eternabot solution 15] (Eterna round: R96, puzzle: Exclusion NG 1)	32.6 nM	41.2 nM	–	–	–	25.7 nM
AGAGAAUAGGUAGGAUAUCUUAAUAGAAAGAAUAGAGAAGGACCACAUGAGGAUCACCCAUGUGAAGUCUUGAGACUACAUGGU [Prohibition 31 - Jieux - Exclusion NG 1] (Eterna round: R96, puzzle: Exclusion NG 1)	–	–	–	–	–	15 nM
CCAUCGAGUGUGAGGAUAUGCUGGUCCAUAGAUCAGCAGAAGGCACAUGAGGAUCACCCAUGUGGAGACGGUGG [Mat - Exclusion 4 - JL Mod - D78] (Eterna round: R96, puzzle: Brourd's mod of Exclusion 4)	–	–	–	–	–	31 nM
ACAUGAGGAUCACCCAUGUGACAAUAAUGGCUGAUAUAGAAACAGGAUAUUCGUGAAUAUCUAACGAAGAAGGGUUAUGACUGG [Deportation 67 - Jieux - Exclusion NG 3] (Eterna round: R96, puzzle: Exclusion NG 3)	49 nM	51.8 nM	–	–	–	38.3 nM
GUGUGGCCUGUAGGAUAUGGUUCCGUUUCGGUUCCAGAAGGACACGAGGAUACAUGAGGAUCACCCAUGUGCUCGUCACUGUGC [salish99_ExNG1_r04_404] (Eterna round: R96, puzzle: Exclusion NG 1)	13.2 nM	18.2 nM	–	–	–	11.5 nM
